Assay: yeast display, Sf9 membrane polyspecificity reagent, FACS + sequencing; frameworks hold sequencing errors
How it was run: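 A synthetic nanobody library was expressed on Saccharomyces cerevisiae BJ5465 by galactose induction for 36–48 hours. The library was stained for 1 hour at 4 °C with 10% biotinylated, detergent-solubilized Sf9 membrane reagent and enriched with streptavidin microbeads before FACS. Low and high (top ~1%) gates were set on anti-HA fluorescence for expression and streptavidin fluorescence for reagent binding, and each polyreactivity label reflects the gate of origin.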

Sequence	polyreactivity (PSR sort gate)
QVQLVESGGGLVQAGGSLRLSCAASGLIFDYYAMGWYRQAPGKERELVAAISANTGRTYYADSVKGRFTISRDNAKNTVYLQMNSLKPEDTAVYYCAAYTQYDGAEFDYWGHGTQVTVSS	high polyreactivity
QVQLVESGGGLVQAGGSLRLSCAASGFIFQDNAMGWYRQAPGKERELVAAIRSTGSTNYADSVKGRFTISRDNAKNTVYLQMNSLKPEDTAVYYCNAGKYQSDTPSLVPTEYPAFYYWGQGTQVTVSS	low polyreactivity
QVQLVESGGGLVQAGGSLRLSCAASGRIFGDYAMGWYRKAPGKERELLAAISWSDGSTYYADSVKGRFTISRDNAKNTVYLQMNSLKPEDTAVYYCAAYGWGYRYVDVVVSDFYYWGQGTQVTVSS	low polyreactivity
QVQLVESGGGLVQAGGSLRLSCAASGTFGLYAMGWYRQAPGKERELVAAIRARGGSTYYADSVKGRFTISRDNAKNTLYLQKNSLKPEETAVYYCAAEFWDVALARKQWYDYWGQGTQVTVSS	high polyreactivity
QVQLVESGGGLVQAGGSLRLSCAASGLTFSYYAMGWYRQAPGKERELVAAISWSGGITYYADSVKGRFTISRDNAKNTVYLQMNSLKPEDTAVYYCAADGYPTLYDYWGQGTQVTVSS	high polyreactivity
QVQLVESGGGLVQAGGSLRLSCAASGFTFYRYAMGWYRQAPGKERELVATISASGGSTYYADSVKGRFTISRDNAKNTVYLQMNSLKPEDTAVYYCAVRYKSWFGFNYWGQGTQVSVSS	high polyreactivity
QVQLVESGGGLVQAGGSLRLSCAASGSIFSKNAMGWYRQAAGKEWEWVAAISRSAGSTYYADSVKGRFTISRDNAKNTVYLQMNSLKPEDTAVYYCAAEGYRWVTAYYDYDEDYWGQGTQVTVSS	low polyreactivity
QVQLVESGGGLVQAGGSLRLSCAPSGRIFKRNTMGWYRQAPGKVRELVAAITGSSGSTYYADSVKGRFTISRDNAKNNVLLQMNSLKPEDTAVYYCNTVRSVYQYWPYNYWGQGTQETVSS	high polyreactivity
QVQLVESGGGLVQAGGSLRLSCAASGFTFGYYAMGWSRQAPGKERELVAAISWSGSRTYYADSVKGRFTISRDNAKNTVYLQMNSLKPEDTAVYYCAAQRYRYLYTSTGWQRYDYYYWGQGTQVTVSS	high polyreactivity
QVQLVESGGGLVQAGGSLRLSCAATGLTVRYYTMGWYRQAPGKERELVASITIRGGSTYYADSVKGRFTISRDNAKNTVYLQMNSLKAEDTAVYYCNTRYGYSFGYWGQGTQVTVSS	high polyreactivity
QVQLVESGGGLVQAGGSLRLSCAASGIIFDRYAMGWYRQAPGKERELVAAITYGGGSTYYADSVKGRFTISRDNAKNTVYLQMNSLKTEDTAVYYCAAVPRSGMYYWGQGTQVTVSS	high polyreactivity
QVQLVESGGGLVQAGGSLRLSCAASGSIFKYNAMGWYRQAPGKERELVATITSSGSTTYYADSVKGRFTISRDNAKYTVYLQMNSLKPEDTAVYYCNARYSYRRDYWGQGTEVTVSS	high polyreactivity
QVQLEESGGGLVQAGGSLRLSCAASGSILYVYAMGWSRQAPGKERELVAAMTRSGDTTSYADSVKGRFTISRDFAKNTVYLQLNSLKPEDTAVYYCDAAERRYGRGYGYWGQCTQVTVSS	high polyreactivity
QVQHVESGGGLVQAGGSLRLSCAASGRTFKYYAMGWDRQAPGKERELVAAITRRGTSTYYADSVKGRFTISRDNAKNTVYLQMNSLKPEDTAVYYCNKDSPVTYSSRYGYWGQGTQVTVSS	high polyreactivity
QVQLVESGGGLVQAGGSLRLSCAASGSTFEYNAMGWYRQAPGKERELLADISYSDGSTYYADSVKGRFTISRDNAMNTVYLQMNSLKPEDTGVYYCAAYSGYGGVSMYYWGQGTHVTVSS	low polyreactivity
QVQLVESGGGLVQAGGSLRLSCAASGSIFKYYAMGWYRQAPGKERELVASITSGGSTNYADSVKGRFTISRDNAKNTVYLQMNSLKPEDTAVYYCAADGVRVPRREYDYWGQGTQVTVSS	low polyreactivity
QVQLVESGGGLVQAGGSLRLSCAASGRIFYPYAMGWYRQAPGKESEFVAAIRWSSGSTYYADSVKGRFTISRDNAKNTVYLQMNSLKPEDTAVYYCAAEGYDSYSYDYWGQGTQVTVSS	high polyreactivity
QDLHVESGGGVVQAGGSLRVSCAASGRTFISYAMGWSRQAPGKERELVATITRDGRTNYADSVKGRFTFSRDNAKNTVYLQMNSLNAEDTAVYYCNADSRYRYDYWGQGSQVTVSS	low polyreactivity
QVQLVESGGGLVQAGGTLRLSCAASGSTFPRNTMGWYRHEPGKERELVAAISSSGVRTYYADSVKGRFTISRDNAKNTVYLQMNSLKAEDTAVYYCAAGSQSRDYYYWGQGTLVTVSS	high polyreactivity
QLQLVESGGRIVQAGGSLRLSCAASGITIRYYAMGWYRQAPGKERELVAAITRSGSTTYADSVKGRFTISRDNAKNTVYFQMNSLKPEDTAVYYCAVDFYYLTGGVDYWGQGTQVTVSS	low polyreactivity
QVQLVESGGGLVQAGGSLRLSCAASGSTFAVNAMGWYRQAPGKEREFVASIRGSGGRTSYADSVKGRFTISRDNAKNTVYLQMNCLKPEDTAVYYCAARYVGGTWRSGRYPRSDYWGQGTQVTVSS	high polyreactivity
QVQLVESGGGLVQAGGSLRLSCASSGRNFTRNTMGWYRQAPGKERELVAAISGRGGSTYYADSVKGRFTISRDNAMKTVYLQMNSLKPEDTAVDYCAADGVYRGGYDYWGQGTQVTVSS	high polyreactivity

Sequence	polyreactivity (PSR sort gate)
QVQLVESGGGLFQAGGSLRLSCAASGLTFYRYVMGWYRQAPGKERELVAAISDSGGSTYYADSVKGRFTISRDNAKNTVYLQMNSLKPEDTAVYYCAAEAPSFVYYSRYDYWGQGTQVTVSS	high polyreactivity
QVQLVESGGGLVQAGGSLRISSAASGSTNYPNAMGWYRQAPGKERELVAVIRWSGGSTYYADSVKGRFTISRDNAKNTVYLQMNSLKPEDTAVYYCNADFYRVAYLRRYSHFDYWGQGTQVTVSS	high polyreactivity
QVQLVESGGGLVQAGGSLRITCAASGYTFGAYSMGWYRQAPWKERELVAAITVRAGRTYYADSVKGRFTISRDNAKNTVYLQMNSLKPEDTAVYYCAADGYLLYVQHPNGRRYDYWGQGTQVTVSS	low polyreactivity
QVQLVDSGGGLVQAGGSLRLSWAASGSTFVYNAMGWYRQAPGKEREFVAGISRSGGSTYYADSVKGRFTISRDNAKNTVYFQMNSLKPEDTAVYYCNARGGLPKYGYWGQGTQVTVSS	high polyreactivity
QVQREESGGGLVQAGGSLRLSCAASGSTFDAYAMGWYRQAPGKERELVAAITWSGGSTYYADSVKGRFTISRDNAKNTVYLQMNSLKPEATAVYYCAADKLGELDYWGQGTQVTVSS	low polyreactivity
QVQLVESGGGLVQAGVSLRLSCAASGSTVGYNAMGWYRQAPGKERELVAAISGNGGSTYADSVKGRFTISRDNAKNTVYLQMNSLKPEDTAVYFCAAVQYGYGLASDSIFDYWGQGTQVTVSS	high polyreactivity
QVQLVESGGGLVQAGGSLRLSCAASGRTFYYNGMAWYRQAPGKERELVAAITSGGTTTYADSVKGLFTISRDNAKNSVYLQMNSVKPEETAVYYSNADYWAVNYDYCGQGTQVTVSS	low polyreactivity
QVQLVESGGGLVQAGGSLRLSCAASGSIFFIYDMGWYRQAPGKERELVADITSGGGSTFYADSVKGRFTISRDNAKNTVYLQMNSLKPEDTAVYYCATDDHDQPGGQLYITEVNYWGQGTQVTVSS	low polyreactivity
QVQLVESGGGLVQAGGSLRVSCAASGFTFPYSAMGWYRQAPGKERELVAAIDWTGGSTYYADSVKGRFTISRDNPKNTVNLQINSLIPDDTAVYYCARDVDYYISSPTPPVVELDYWGQGTQVTVSS	low polyreactivity
QVQLVESGGVLVQAGGSLRLSCAPSGFTFYRYAMGWYRQAPGKESELVAAISYSGGRTYYADSVKGRFTISCDIAKNTVYLQMNSLKPEDTAVYYCNARASYGHQGRLGYARLYYWGQGTQVTVSS	high polyreactivity
QVQLVESGGGLVQAGGSLRLSCAASGFTFYSYAMGWYRQAPGKERELVATISRNGGTTRYADSVKGRFTISRDNAKNTVYLQMNSLKPEDTAVYYCNAVYYAYSRHSYAMDYWGQGTQVTVSS	high polyreactivity
QVQLVESGGGLVQAGGSLRLSCAASGLIFSYYAMGWYRQAPGKERELVAGITRSGASTYADSVKGRFTISRDNAKNTVYLQMNSLKPEDTAVYYCAADWHYLGWFWQYSKYDYWGQGTQVTVSS	high polyreactivity
QVQLVESGGGLVKAGGSLRISCAASGFILGQYAMGWYRQAPGKERELVAAISRSSSTTYADSVKGRFTISRDKAKNTVYLQMNSLNPEDTAVYYCAAYYWYVTYFRREIAYEYWGQGTQVTVSS	low polyreactivity
QVQLVESGGGLVQAGGSLRLSCAASGRISTYNAMGWYIQAPGKERELVASITGGGSTNYADSVKGRFTISRDNAKNTVYLQMNSLKPEDTAVYYCNAKARGQRGYRKIYGYDYWGQGTQVTVSS	high polyreactivity
QVQLVESGGGLVQAGGSLRLSCAASGFTFVLYAMGWYRQAPGKERELVATITSSGRTNYADSVKGRFTISRDNAKNTVYLQMNSLKPEDTAVYYCAARGGRRYDYWGQGTQVTVSS	high polyreactivity
QVQLVESGGGLVHAGGSLRLSCAASGSTFRSYAMGWYRQAPGKERELVARISYRTGSTYYADSVKGRFTISRDYAKNTVYLQMNSLKPEDTAVYYCATRGSYVGGLYDYWGQGTQVTVSS	high polyreactivity
QVQLVESGGGLVQAGGSLRFSCAASGSIFPYYAMGWYRQAPGKERELVAAISDSGDSTYYADSVKGRFTISRDNAKNTVYLQMNSLKPEDTAVYYCAADQTSSYYDPWGDYWGQGTQVTVSS	low polyreactivity
QVHLVESGGGLVQAGGSLRLSCHASGIIFKTYAMGWYRQPPGKERELVAAISSGGTTYYADSVKGRFTISRDNAKNTVYLQMNSLKPEDTAVYYCAARGYRSGGGYNYWGQGTQVTVSS	high polyreactivity
QVQLVESGGGLVQAGVSLRLSCAASGTFFGYAMGWYRQAPGKERELVASITSGDSTNYADSVKGRFTISRDNAKKTVYLQMNSLKPEDTAVYYCNADRFADYDYWGQGTQVTVSS	low polyreactivity
QVQLVESGGGLVQAGGILRLSCAASGSIFSPYVMGWYRQAPGKERELVAAISTGGSTYYADSVKGRFTISRDNAKNTVYLQMNSLKPEDTAVYYCATDGWKQSAYDYWGQGTQVTVSS	low polyreactivity
QVQLVESGGGLVQAGGSLRLICAASGRTFKFNAMGWYRQAPGKERELVARITGGRTNYADSVKGRFTISRDNAKNTVYLQLNSLKPEDTAVYYCAADRYYGYSQDRRRYGYWGQGTQVTVSS	high polyreactivity

— the nanobody polyreactivity screen of Harvey et al. (2022)
